From the Immune Epitope Database (IEDB)

Assays:
HLA-A*01:01 [1] = assay: IEDB peptide-MHC binding, purified MHC/direct/fluorescence; filed as Kd, often an IC50 or EC50 that approximates it; ≥ and ≤ were set here for values at or beyond the usual limits of such assays
HLA-A*02:01 [2] = assay: as above
HLA-A*03:01 = assay: as above; settings: source organism: Mycobacterium tuberculosis
HLA-A*11:01 = assay: as above; settings: source organism: Mycobacterium tuberculosis
HLA-A*31:01 = assay: as above; settings: source organism: Mycobacterium tuberculosis
HLA-A*69:01 = assay: as above
HLA-B*08:01 [3] = assay: as above
HLA-B*15:01 [4] = assay: as above
HLA-B*15:17 [5] = assay: as above; settings: source organism: Mycobacterium tuberculosis
HLA-B*18:01 = assay: as above
HLA-B*27:05 = assay: as above
HLA-B*38:01 = assay: as above
HLA-B*39:01 = assay: as above
HLA-B*40:01 = assay: as above
HLA-B*46:01 = assay: as above
HLA-B*48:01 = assay: as above
HLA-B*51:01 = assay: as above; settings: source organism: Mycobacterium tuberculosis
HLA-B*57:01 = assay: as above
HLA-B*58:01 = assay: as above
HLA-A*24:02 [6] = assay: IEDB peptide-MHC binding, purified MHC/competitive/fluorescence; ≥ and ≤ were set here for values at or beyond the usual limits of such assays
HLA-B*08:01 [7] = assay: as above
HLA-B*15:01 [8] = assay: as above; settings: source organism: Zaire ebolavirus
HLA-A*26:01 = assay: IEDB peptide-MHC binding, purified MHC/direct/fluorescence; filed as Kd, often an IC50 or EC50 that approximates it; ≥ and ≤ were set here for values at or beyond the usual limits of such assays
HLA-A*68:02 [9] = assay: as above; settings: source organism: Marburg virus - Musoke, Kenya, 1980
HLA-B*07:02 = assay: as above; settings: source organism: Marburg virus - Musoke, Kenya, 1980
HLA-B*08:02 = assay: as above; settings: source organism: Ravn virus - Ravn, Kenya, 1987
HLA-B*15:09 = assay: as above; settings: source organism: Ravn virus - Ravn, Kenya, 1987
HLA-A*26:02 = assay: IEDB peptide-MHC binding, purified MHC/competitive/fluorescence; filed as Kd, often an IC50 or EC50 that approximates it; ≥ and ≤ were set here for values at or beyond the usual limits of such assays; settings: source organism: Orthomarburgvirus marburgense
HLA-B*15:01 [10] = assay: as above; settings: source organism: Orthomarburgvirus marburgense
HLA-B*15:17 [11] = assay: as above; settings: source organism: Orthomarburgvirus marburgense
HLA-B*35:01 = assay: as above; settings: source organism: Orthomarburgvirus marburgense
HLA-C*03:03 = assay: IEDB peptide-MHC binding, purified MHC/direct/fluorescence; filed as Kd, often an IC50 or EC50 that approximates it; ≥ and ≤ were set here for values at or beyond the usual limits of such assays; settings: source organism: Orthomarburgvirus marburgense
HLA-A*01:01 [12] = assay: IEDB peptide-MHC binding, purified MHC/competitive/fluorescence; filed as Kd, often an IC50 or EC50 that approximates it; ≥ and ≤ were set here for values at or beyond the usual limits of such assays; settings: source organism: Orthomarburgvirus marburgense
HLA-A*02:01 [13] = assay: as above; settings: source organism: Orthomarburgvirus marburgense
HLA-A*02:06 = assay: as above; settings: source organism: Orthomarburgvirus marburgense
HLA-A*68:02 [14] = assay: as above; settings: source organism: Orthomarburgvirus marburgense
HLA-C*04:01 = assay: IEDB peptide-MHC binding, purified MHC/direct/fluorescence; filed as Kd, often an IC50 or EC50 that approximates it; ≥ and ≤ were set here for values at or beyond the usual limits of such assays
HLA-A*24:02 [15] = assay: IEDB peptide-MHC binding, purified MHC/competitive/fluorescence; filed as Kd, often an IC50 or EC50 that approximates it; ≥ and ≤ were set here for values at or beyond the usual limits of such assays
HLA-A*02:01 [16] = assay: IEDB peptide-MHC binding, purified MHC/competitive/fluorescence; ≥ and ≤ were set here for values at or beyond the usual limits of such assays; settings: source organism: Variola virus
HLA-B*08:01 [17] = assay: IEDB peptide-MHC binding, purified MHC/competitive/fluorescence; filed as Kd, often an IC50 or EC50 that approximates it; ≥ and ≤ were set here for values at or beyond the usual limits of such assays; settings: source organism: Mycobacterium tuberculosis variant bovis BCG str. Pasteur 1173P2
[18] = source organism: Mycobacterium tuberculosis
[19] = source organism: Mycobacterium tuberculosis str. Haarlem
[20] = source organism: Zaire ebolavirus
[21] = source organism: Vaccinia virus Copenhagen
[22] = source organism: Marburg virus - Musoke, Kenya, 1980
[23] = source organism: Ravn virus - Ravn, Kenya, 1987
[24] = source organism: Salmonella enterica subsp. enterica serovar Typhi str. CT18
[25] = source organism: Rickettsia typhi str. Wilmington

## APAKKAAPA
HLA-A*01:01 [1]; [18]
  Kd: ≥ 20 µM
HLA-A*02:01 [2]; [18]
  Kd: ≥ 20 µM
HLA-A*03:01
  Kd: ≥ 20 µM
HLA-A*11:01
  Kd: ≥ 20 µM
HLA-A*31:01
  Kd: ≥ 20 µM
HLA-A*69:01; [18]
  Kd: ≥ 20 µM
HLA-B*08:01 [3]; [19]
  Kd: 0.077 µM
HLA-B*15:01 [4]; [18]
  Kd: ≥ 20 µM
HLA-B*15:17 [5]
  Kd: ≥ 20 µM
HLA-B*18:01; [18]
  Kd: ≥ 20 µM
HLA-B*27:05; [18]
  Kd: ≥ 20 µM
HLA-B*38:01; [19]
  Kd: ≥ 20 µM
HLA-B*39:01; [19]
  Kd: ≥ 20 µM
HLA-B*40:01; [18]
  Kd: ≥ 20 µM
HLA-B*46:01; [18]
  Kd: ≥ 20 µM
HLA-B*48:01; [18]
  Kd: ≥ 20 µM
HLA-B*51:01
  Kd: ≥ 20 µM
HLA-B*57:01; [18]
  Kd: ≥ 20 µM
HLA-B*58:01; [18]
  Kd: ≥ 20 µM

## DRFKRTSFF
HLA-A*24:02 [6]; [20]
  IC50: 1.22 µM
HLA-B*08:01 [7]; [20]
  IC50: 5.43 µM
HLA-B*15:01 [8]
  IC50: ≥ 181 µM

## GYFLKIKVT
HLA-A*24:02 [6]; [21]
  IC50: ≥ 215 µM
HLA-B*08:01 [7]; [21]
  IC50: ≥ 231 µM

## IHLDKGGQF
HLA-A*01:01 [1]; [22]
  Kd: ≥ 20 µM
HLA-A*02:01 [2]; [22]
  Kd: ≥ 20 µM
HLA-A*26:01; [23]
  Kd: ≥ 20 µM
HLA-A*68:02 [9]
  Kd: ≥ 20 µM
HLA-A*69:01; [22]
  Kd: ≥ 20 µM
HLA-B*07:02
  Kd: ≥ 20 µM
HLA-B*08:01 [3]; [23]
  Kd: ≥ 20 µM
HLA-B*08:02
  Kd: ≥ 20 µM
HLA-B*15:09
  Kd: 7.14 µM
HLA-B*18:01; [22]
  Kd: ≥ 20 µM
HLA-B*27:05; [22]
  Kd: ≥ 20 µM
HLA-B*38:01; [23]
  Kd: ≥ 20 µM
HLA-B*39:01; [22]
  Kd: ≥ 20 µM
HLA-B*40:01; [22]
  Kd: ≥ 20 µM
HLA-B*46:01; [22]
  Kd: ≥ 20 µM
HLA-B*48:01; [22]
  Kd: ≥ 20 µM
HLA-B*57:01; [22]
  Kd: ≥ 20 µM
HLA-B*58:01; [22]
  Kd: ≥ 20 µM
HLA-A*26:02
  Kd: ≥ 20 µM
HLA-B*15:01 [10]
  Kd: ≥ 20 µM
HLA-B*15:17 [11]
  Kd: ≥ 20 µM
HLA-B*35:01
  Kd: ≥ 20 µM

## ISDPLTSGL
HLA-A*26:01; [23]
  Kd: ≥ 20 µM
HLA-B*07:02
  Kd: ≥ 20 µM
HLA-B*08:01 [3]; [23]
  Kd: ≥ 20 µM
HLA-B*15:01 [4]; [22]
  Kd: ≥ 20 µM
HLA-B*18:01; [22]
  Kd: ≥ 20 µM
HLA-B*27:05; [22]
  Kd: ≥ 20 µM
HLA-B*38:01; [23]
  Kd: 5.03 µM
HLA-B*39:01; [22]
  Kd: ≥ 20 µM
HLA-B*40:01; [22]
  Kd: ≥ 20 µM
HLA-B*46:01; [22]
  Kd: ≥ 20 µM
HLA-B*48:01; [22]
  Kd: ≥ 20 µM
HLA-B*57:01; [22]
  Kd: ≥ 20 µM
HLA-B*58:01; [22]
  Kd: 0.415 µM
HLA-C*03:03
  Kd: ≥ 20 µM
HLA-A*01:01 [12]
  Kd: 1.03 µM
HLA-A*02:01 [13]
  Kd: 0.0681 µM
HLA-A*02:06
  Kd: 0.0206 µM
HLA-A*68:02 [14]
  Kd: ≥ 20 µM
HLA-B*15:17 [11]
  Kd: 0.0132 µM
HLA-B*35:01
  Kd: ≥ 20 µM

## IYASRPLDF
HLA-C*04:01; [24]
  Kd: ≥ 20 µM
HLA-A*24:02 [15]; [24]
  Kd: ≤ 0.0001 µM

## IYYWTAWLI
HLA-C*04:01; [25]
  Kd: ≥ 20 µM
HLA-A*24:02 [15]; [25]
  Kd: 0.0017 µM

## LSLPRIALV
HLA-A*02:01 [16]
  IC50: 0.617 µM
HLA-B*08:01 [7]; source organism: Variola virus
  IC50: ≥ 285 µM

## SPRSRNRSF
HLA-A*01:01 [1]; [18]
  Kd: ≥ 20 µM
HLA-A*02:01 [2]; [18]
  Kd: ≥ 20 µM
HLA-A*03:01
  Kd: ≥ 20 µM
HLA-A*11:01
  Kd: ≥ 20 µM
HLA-A*26:01; [19]
  Kd: ≥ 20 µM
HLA-A*31:01
  Kd: ≥ 20 µM
HLA-A*69:01; [18]
  Kd: ≥ 20 µM
HLA-B*15:01 [4]; [18]
  Kd: ≥ 20 µM
HLA-B*15:17 [5]
  Kd: ≥ 20 µM
HLA-B*18:01; [18]
  Kd: ≥ 20 µM
HLA-B*27:05; [18]
  Kd: ≥ 20 µM
HLA-B*38:01; [19]
  Kd: ≥ 20 µM
HLA-B*39:01; [19]
  Kd: ≥ 20 µM
HLA-B*40:01; [18]
  Kd: ≥ 20 µM
HLA-B*46:01; [18]
  Kd: ≥ 20 µM
HLA-B*48:01; [18]
  Kd: ≥ 20 µM
HLA-B*51:01
  Kd: ≥ 20 µM
HLA-B*57:01; [18]
  Kd: ≥ 20 µM
HLA-B*58:01; [18]
  Kd: ≥ 20 µM
HLA-B*08:01 [17]
  Kd: 0.123 µM

## VMPLLVWLF
HLA-A*24:02 [15]; source organism: Campylobacter jejuni subsp. jejuni NCTC 11168 = ATCC 700819
  Kd: 0.0029 µM
